Source: patent US20110305703A1, “ISOLATED VEGF-C AND VEGF-D PEPTIDES AND USES THEREOF” (Vegenics Pty Limited, priority 2008, published 2011)

B1: S150G/L151V: VEGF-DΔNΔC variant with double mutation S150G/L151V (mouse residues) (protein)
chain: MYREWVVVNVFMMLYVQLVQGSSNEHGPVKRSSQSTLERSEQQIRAASSLEELLRITHSEDWKLWRCRLRLKSFTSMDSRSASHRSTRFAATFYDIETLKVIDEEWQRTQCSPRETCVEVASELGKSTNTFFKPPCVNVFRCGGCCNEEGVICMNTSTSYISKQLFEISVPLTSVPELVPVKVANHTGCKCLPTAPRHPYSIIRRSIQIPEEDRCSHSKKLCPIDMLWDSNKCKCVLQEENPLAGTEDHSHLQEPALCGPHMMFDEDRCECVCKTPCPKDLIQHPKNCSCFECKESLETCCQKHKLFHPDTCSCEDRCPFHTRPCASGKTACAKHCRFPKEKRAAQGPHSRKNP
B2: E148S: VEGF-DΔNΔC variant with mutation E148S (protein)
chain: DYKDDDDKFYDIETLKVIDEEWQRTQCSPRETCVEVASELGKSTNTFFKPPCVNVFRCGGCCNSESLICMNTSTSYISKQLFEISVPLTSVPELVPVKVANHTGCKCLPTAPRHPYS
B3: E148S and S150G double mutation: VEGF-DΔNΔC variant containing both E148S and S150G (VEGF-C residues) (protein)
chain: DYKDDDDKFYDIETLKVIDEEWQRTQCSPRETCVEVASELGKSTNTFFKPPCVNVFRCGGCCNSEGLICMNTSTSYISKQLFEISVPLTSVPELVPVKVANHTGCKCLPTAPRHPYS

test system: VDnmAb; test: Western blot of conditioned media containing VEGF-DΔNΔC variants probed with VDnmAb; type: binding; settings: conditioned media of 293-F cells; in comparison to VEGF-DΔNΔC
Text: Site-directed mutagenesis. DNA encoding VEGF-DΔNΔC, a form of mature human VEGF-D tagged at the N-terminus with the FLAG octapeptide (FIG. 11; SEQ ID NO: 145), was subjected to site-directed mutagenesis by PCR to generate VEGF-DΔNΔC variants. Mutations were introduced by amplification with the following primers: N147Q with 5'-[…] NO: 146) and 5'-[…] with 5'-[…] NO: 148) and 5'-[…] with 5'-[…] NO: 150) and 5'-[…] with 5'-[…] NO: 152) and 5'-[…] with 5'-[…] NO: 154) and 5'-[…] with 5'-[…] NO: 156) and 5'-[…] with 5'-[…] NO: 158) and 5'-[…] NO: 159) (FIG. 12). The desired mutations, as well as the absence of any unwanted mutations, in the resulting DNA fragments were confirmed by nucleotide sequencing. Expression of VEGF-DΔNΔC variants. Plasmids containing DNA encoding VEGF-DΔNΔC or its variants were used for transient transfection of 293-F cells with the FreeStyle MAX 293 Expression System according to manufacturer's instructions (Invitrogen). Cells expressing each variant were cultured in serum-free medium, and 30 ml of conditioned media was collected 7 days post-transfection and used for analysis. Western Blot Analysis. Conditioned media containing different variants of VEGF-DΔNΔC were resolved by SDS-PAGE, transferred to nitrocellulose membrane, probed with M2 anti-FLAG or VDnmAb antibodies labeled with IRDye 800CW according to manufacturer's instructions (LI-COR), and detected with an Odyssey Infrared Imaging System (LI-COR).

Molecule	VDnmAb binding to VEGF-DΔNΔC variant in Western blot
B1	complete loss of VDnmAb binding
B2	complete loss of VDnmAb binding
B3	complete loss of VDnmAb binding
